The text below walks through data of publication doi:10.1101/2025.09.10.675329 (bioRxiv, 2025).

For this test, the target named is CDK5 (full-length), His-tag cleaved (human, UniProt Q00535 1-292). The test can be described thus: SEC.

B1: cyclin B1 (amino acids 152-433, C167S, C238S, C350S), co-expressed with CDK5 from a single 438-B vector (domain or fragment)
chain: AVNDVDAEDGADPNLSSEYVKDIYAYLRQLEEEQAVRPKYLLGREVTGNMRAILIDWLVQVQMKFRLLQETMYMTVSIIDRFMQNNSVPKKMLQLVGVTAMFIASKYEEMYPPEIGDFAFVTDNTYTKHQIRQMEMKILRALNFGLGRPLPLHFLRRASKIGEVDVEQHTLAKYLMELTMLDYDMVHFPPSQIAAGAFSLALKILDNGEWTPTLQHYLSYTEESLLPVMQHLAKNVVMVNQGLTKHMTVKNKYATSKHAKISTLPQLNSALVQDLAKAVAKV
Turning to B1, the binding result is “binds”.
